Several values for one entry are separate records, joined by “and”; a condition that tells them apart may be missing. Identical values can stand only once.
Legend:
[1] = Leaching test: leakage (membrane disruptive function); type: biochemical; conditions: sample not acid-aggregated
Description: Herein, the term “membrane disruptive function” means a function of causing leakage in a leaching test. Herein, the leaching test in the present specification is a test in which liposomes (dispersion) including an aqueous solution containing a quenching substance and a fluorescent substance, and an evaluation sample dispersion such as a solution containing a complex (aggregate of a pH sensitive carrier supporting a physiologically active substance) are added to an aqueous solution whose pH is adjusted to a predetermined level, followed by incubating the aqueous solution at 37° C. for 90 minutes or 30 minutes and measuring the fluorescence of the aqueous solution. According to this method, an amount of a fluorescent substance leached out from the liposomes can be measured, from which the liposome membrane disruptive function of the complex can be confirmed.
Herein, the expression “to develop a membrane disruptive function promoting effect” means to satisfy both of requirements (1) and (2): (1) in the leaching test, a leakage at a predetermined pH that is less than a physiological pH increases compared to a leakage at the physiological pH and the amount of increase is larger than the amount of increase in a case where the pH sensitive compound alone is subjected to the test; and (2) in the leaching test at a predetermined pH less than the physiological pH, a leakage of the complex is more than the sum of a leakage of the pH sensitive compound alone and a leakage of the amphipathic substance alone. More specifically, to develop a membrane disruptive function promoting effect means that, in the leaching test at a pH of 7.4 and at a pH of 5.0 or 4.5, a leakage Lc of the complex, a leakage La of the pH sensitive compound alone, and a leakage Lb of the amphipathic substance alone satisfy both the following relations. That is, the above (1) is represented by the following Formula (1) and the above (2) is represented by the following Formula (2). […]
3,000 nmol of EYPC (egg yolk phosphatidylcholine) dissolved in chloroform was measured and introduced into a 10-mL pear-shaped flask, and a thin film was produced using a rotary evaporator (BuCHI). […]
Meanwhile, the case of an EYPC liposome dispersion liquid only was designated as 0%, the value obtained in a case in which 30 μL of Triton-X100 diluted to ten time was added was designated as 100%, and the leakage was calculated.
Specifically, the leakage was calculated according to the following formula 4. In the following formula, the fluorescence intensity thus measured was designated as L, the fluorescence intensity of only the EYPC liposome dispersion liquid encapsulating a fluorescent substance was designated as L0, and the fluorescence intensity in the case of having Triton-X100 added thereto was designated as L100.

[2] = Integration of peptide with pH sensitive carrier: absorbance at 750 nm (Lowry kit), 0.22-μm filtration; type: physicochemical; conditions: for peptide-derived absorbance: mixed liquid with the pH sensitive carrier at a neutral pH; for absorbance of the solution after filtration: pH lowered to obtain an aggregate of the pH sensitive carrier
Description: (§1) When a liquid including the complex obtained as described above is treated with a filter (for example, having a pore size of 0.22 μm), and the concentrations of the physiologically active substance before and after a filtration treatment are measured, the integration ratio of the physiologically active substance (proportion of the amount of the physiologically active substance incorporated into an aggregate of the pH sensitive carrier with respect to the total amount of the physiologically active substance added) can be checked. Here, the concentration of the physiologically active substance can be measured by any known method. Meanwhile, in the present specification, the integration efficiency of the physiologically active substance is defined as a value calculated by the following formula 3 based on the measurement of the absorbance before and after a filtration treatment. At this time, the absorbance may be measured at a wavelength corresponding to the absorption wavelength range of the physiologically active substance (for example, 280 nm in the case of a protein or a peptide, and 260 nm in the case of a nucleic acid). Alternatively, the liquid is colored using a commercially available quantification kit, and then the absorbance may be measured at a wavelength that is recommended by the protocol of the kit.
(§2) Integration efficiency of physiologically active substance (%)=[(Absorbance before filtration treatment−Absorbance after filtration treatment)/(Absorbance before filtration treatment)]×100 (Formula 3)
[…] and […] were used as peptides, and the concentration of the peptide was adjusted to 0.8 mg/mL. […] The pH at the time of preparing an aggregate of the pH sensitive carrier was adjusted to 4 using 1 N sulfuric acid. The time for standing was set to 2 hours. The mixed liquid was passed through a 0.22-μm filter, the liquid before and after filtration was colored using a peptide quantification kit (Lowry kit, manufactured by NACALAI TESQUE, INC.), and measurement of the absorbance at a wavelength of 750 nm was carried out.

[3] = Integration of OVA with pH sensitive carrier: absorbance at 595 nm (CBB) before and after 0.22-μm filtration; type: physicochemical; conditions: for integration efficiency for OVA based on the change in the absorbance: DLPC 1,000 nmol in 1 mL
Description: as §1, §2
2. Next, separation of the protein was checked. PBS at pH 7.4 containing OVA was passed through a 0.22-μm filter similarly to the previous operation. The liquid before and after the filtration treatment was colored using a protein quantification kit (protein assay CBB solution, manufactured by NACALAI TESQUE, INC.), and measurement of the absorbance at a wavelength of 595 nm was performed. […] Meanwhile, the absorbance was converted to concentration using a calibration curve, and while the OVA concentration before filtration was 0.81 mg/mL, the OVA concentration after filtration was 0.79 mg/mL. The concentrations thus obtained were consistent with the feed concentration (FIG. 3B). It was confirmed that free OVA all escaped without being captured by the filtration. Therefore, it was considered that integration of the aggregate of the pH sensitive carrier and the protein can be evaluated by measuring the protein concentrations before and after passage through a filter (pore diameter 0.22 μm).
OVA was mixed with a dispersion liquid of the pH sensitive carrier, and a mixed liquid was prepared. Subsequently, the mixed liquid was passed through a filter by a test method similar to section 2. of Experiment 2, and the change in the absorbance (corresponding to the OVA concentration) before and after a filtration treatment was investigated. […]

[4] = aggregate of DLPC-deoxycholic acid carrier, pH 4, 2 hours
[5] = OVA 0.8 mg/mL, 1,000 nmol amphiphilic substance and 1,600 nmol pH sensitive compound in 1 mL, pH 4, 1 hour, listed as OVA only
[6] = PBS at pH 7.4, no carrier, from calibration curve

In the case of `CCCCCCCCCCCC(=O)OC[C@H](COP(=O)([O-])OCC[N+](C)(C)C)OC(=O)CCCCCCCCCCC` [DLPC alone, 1,2-dilauroyl-sn-glycero-3-phosphatidylcholine], the Leakage ([1]; leaching test at pH 5.0) is reported as 2.587% and 4.587% and the Leakage ([1]; leaching test at pH 7.4) is reported as 1.188% and 2.688%.

In the case of RGPESRLL, the peptide-derived absorbance ([2]; RGPESRLL) is reported as 1.40, the “absorbance of the solution after filtration” value ([2]; RGPESRLL) is reported as 0.82 and the “integration efficiency of the RGPESRLL peptide based on the change in absorbance” value [2, 4] is reported as “about 41%”.

In the case of SIINFEKL, the “integration efficiency of the SIINFEKL peptide based on the change in absorbance” value [2, 4] is reported as “about 27%”, the peptide-derived absorbance [2] is reported as 0.44 and the “absorbance of the solution after filtration” value [2] is reported as 0.32.

B1: OVA: Model protein: OVA (molecular weight 45 kDa, manufactured by Sigma-Aldrich Corp.) (protein, UniProt P01012 2-386, looked up)
Ovalbumin: GSIGAASMEFCFDVFKELKVHHANENIFYCPIAIMSALAMVYLGAKDSTRTQINKVVRFDKLPGFGDSIEAQCGTSVNVHSSLRDILNQITKPNDVYSFSLASRLYAEERYPILPEYLQCVKELYRGGLEPINFQTAADQARELINSWVESQTNGIIRNVLQPSSVDSQTAMVLVNAIVFKGLWEKAFKDEDTQAMPFRVTEQESKPVQMMYQIGLFRVASMASEKMKILELPFASGTMSMLVLLPDEVSGLEQLESIINFEKLTEWTSSNVMEERKIKVYLPRMKMEEKYNLTSVLMAMGITDVFSSSANLSGISSAESLKISQAVHAAHAEINEAGREVVGSAEAGVDAASVSEEFRADHPFLFCIKHIATNAVLFFGRCVSP
With B1 the “Absorbance after filtration (corresponding to the OVA concentration)” value [3, 5] was 0.651 and 0.533, the “Absorbance before filtration (corresponding to the OVA concentration)” value [3, 5] was 0.661 and 0.588 and the “OVA concentration after filtration” value [3, 6] was 0.79 mg/mL. For the same molecule, the “OVA concentration before filtration” value [3, 6] was 0.81 mg/mL, the “Absorbance at 595 nm before filtration” value ([3]; PBS at pH 7.4 containing OVA, no carrier) was 0.616 and the “Absorbance at 595 nm after filtration” value ([3]; PBS at pH 7.4 containing OVA, no carrier, 0.22-μm filter) was 0.601. For the same molecule, the “integration efficiency for OVA based on the change in the absorbance” value ([3]; carrier with deoxycholic acid 400 nmol/mL, pH 4) was “about 42%”, the “integration efficiency for OVA based on the change in the absorbance” value ([3]; carrier with deoxycholic acid 1,600 nmol/mL, pH 4) was “about 60%” and the “integration efficiency for OVA based on the change in the absorbance” value ([3]; carrier with deoxycholic acid 6,400 nmol/mL, pH 4) was “about 64%”.

— patent US20210145750A1, “COMPLEX, pH SENSITIVE COMPOSITION INCLUDING COMPLEX, AND METHOD FOR PRODUCING COMPLEX” (TERUMO KABUSHIKI KAISHA, priority 2017, published 2021)
